Experimental findings from patent CN116284426A (SUNSHINE GUOJIAN PHARMACEUTICAL SHANGHAI CO LTD, dated 2023) are described below.

By EC50 is commonly meant the concentration at which the effect is half-maximal. Low values mean a more potent agent, high ones a less potent agent.

Experiment [1] addresses T1, GUCY2C on tumour cells (CW2, CW2-GCC#1, T84) (human, UniProt P25092 24-1073). The experiment can be described thus: cell-based or functional assay.
Experiment [2] has as its target T1, GUCY2C on tumour cells (CW2, CW2-GCC#1, …). The experiment can be described thus: cell-based or functional assay. This is another data set of the same source.
The target in experiment [3] is T2, CD3ε-ECD-his (UniProt P07766 23-126).
T2 construct: extracellular domain; also called CD3ε蛋白
The experiment can be described thus: ELISA, CD3ε-ECD-his coated; reference SP34. On the technique in general: In an ELISA, binding on a coated surface is turned into a signal by an enzyme label.

The target of experiment [4] is T2, CD3ε-ECD-his. As to the kind of experiment: ELISA, CD3ε-ECD-his coated at 1 ug/mL (Table 19).
Experiment [5] deals with T3, GUCY2C-His蛋白 (human GUCY2C extracellular region with C-terminal 6xHis) (human, UniProt P25092 24-430).
T3 construct: extracellular domain; Made in HEK-293F with an unspecified N-terminal signal peptide; also called 人GUCY2C-His蛋白
The experiment can be described thus: ELISA, GUCY2C-His coated, anti-human IgG Fab HRP (Table 9).

Experiment [6] concerns the target T4, GUCY2C-Fc蛋白 (human GUCY2C extracellular region fused to human IgG1 Fc) (human, UniProt P25092 24-430).
T4 construct: extracellular domain; Made in HEK-293F with an unspecified N-terminal signal peptide; also called 人GUCY2C-Fc蛋白; not shown: human IgG1 Fc at the C-terminus in place of the 6xHis tag
As to the kind of experiment: ELISA, GUCY2C-Fc coated, anti-human IgG Fab HRP (Table 11).

In experiment [7] the target is T4, GUCY2C-Fc蛋白 (human GUCY2C extracellular …). As to the kind of experiment: ELISA, GUCY2C-Fc coated, anti-human IgG Fab HRP (Table 12).
Experiment [8] has the same target. As to the kind of experiment: ELISA, GUCY2C-Fc coated, anti-human IgG Fab HRP (Table 18).
The target of experiment [9] is T3, GUCY2C-His蛋白 (human GUCY2C …). The experiment can be described thus: ELISA, GUCY2C-His coated, anti-human IgG Fab HRP (Table 10).
For experiment [10] the target is unchanged. The experiment can be described thus: ELISA, GUCY2C-His coated, anti-human IgG Fab HRP (Table 17).
Experiment [11] has as its target T2, CD3ε-ECD-his. As to the kind of experiment: ELISA, CD3ε-ECD-his coated at 1 ug/mL, anti-human IgG Fab HRP (Table 14).
Experiment [12] has as its target T4, GUCY2C-Fc蛋白 (human GUCY2C extracellular …). As to the kind of experiment: indirect ELISA, GUCY2C-Fc coated at 1 ug/mL, anti-mouse HRP.
In experiment [13] the target is T1, GUCY2C on tumour cells (CW2, CW2-GCC#1, …). The experiment can be described thus: flow cytometry on CW2 human colon cancer cells, anti-mouse PE.
In experiment [14] the target is T3, GUCY2C-His蛋白 (human GUCY2C …). The experiment can be described thus: ELISA, GUCY2C-His coated at 0.1 ug/mL, anti-mouse HRP (Table 4).
For experiment [15] the target is unchanged. As to the kind of experiment: ELISA, GUCY2C-His coated, anti-human IgG Fc HRP.
Experiment [16] has the same target. The experiment can be described thus: ELISA, GUCY2C-His coated at 0.1 ug/mL, anti-mouse HRP (Table 3).

T3 sequence (P25092 other isoform, or with tags, fused parts or gaps): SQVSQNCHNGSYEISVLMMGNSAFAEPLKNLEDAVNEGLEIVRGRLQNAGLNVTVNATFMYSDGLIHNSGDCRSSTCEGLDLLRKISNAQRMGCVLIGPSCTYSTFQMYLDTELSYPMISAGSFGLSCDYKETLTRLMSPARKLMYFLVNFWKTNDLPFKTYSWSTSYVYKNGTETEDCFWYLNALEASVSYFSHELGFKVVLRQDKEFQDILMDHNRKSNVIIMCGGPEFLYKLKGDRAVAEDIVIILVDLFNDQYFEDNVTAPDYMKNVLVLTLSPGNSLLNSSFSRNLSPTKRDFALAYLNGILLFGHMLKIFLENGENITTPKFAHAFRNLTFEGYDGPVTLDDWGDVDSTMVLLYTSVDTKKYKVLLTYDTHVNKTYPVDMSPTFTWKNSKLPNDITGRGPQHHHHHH
T4 sequence (P25092 24-430 limits assumed): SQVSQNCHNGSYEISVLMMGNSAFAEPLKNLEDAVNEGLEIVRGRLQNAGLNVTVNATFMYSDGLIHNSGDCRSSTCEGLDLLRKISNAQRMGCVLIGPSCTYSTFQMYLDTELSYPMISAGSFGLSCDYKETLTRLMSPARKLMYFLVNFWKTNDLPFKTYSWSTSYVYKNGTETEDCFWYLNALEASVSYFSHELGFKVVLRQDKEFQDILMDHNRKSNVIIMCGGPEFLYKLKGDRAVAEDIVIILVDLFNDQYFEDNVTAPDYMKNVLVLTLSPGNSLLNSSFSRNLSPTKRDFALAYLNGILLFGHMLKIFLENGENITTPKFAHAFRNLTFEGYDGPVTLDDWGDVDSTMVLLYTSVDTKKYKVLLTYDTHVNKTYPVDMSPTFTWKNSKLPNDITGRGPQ
T2 sequence (P07766 other isoform, or with tags, fused parts or gaps): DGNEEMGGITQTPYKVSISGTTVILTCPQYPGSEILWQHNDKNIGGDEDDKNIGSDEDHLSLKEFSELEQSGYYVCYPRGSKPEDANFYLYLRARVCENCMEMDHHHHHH
T1 sequence (P25092 24-1073): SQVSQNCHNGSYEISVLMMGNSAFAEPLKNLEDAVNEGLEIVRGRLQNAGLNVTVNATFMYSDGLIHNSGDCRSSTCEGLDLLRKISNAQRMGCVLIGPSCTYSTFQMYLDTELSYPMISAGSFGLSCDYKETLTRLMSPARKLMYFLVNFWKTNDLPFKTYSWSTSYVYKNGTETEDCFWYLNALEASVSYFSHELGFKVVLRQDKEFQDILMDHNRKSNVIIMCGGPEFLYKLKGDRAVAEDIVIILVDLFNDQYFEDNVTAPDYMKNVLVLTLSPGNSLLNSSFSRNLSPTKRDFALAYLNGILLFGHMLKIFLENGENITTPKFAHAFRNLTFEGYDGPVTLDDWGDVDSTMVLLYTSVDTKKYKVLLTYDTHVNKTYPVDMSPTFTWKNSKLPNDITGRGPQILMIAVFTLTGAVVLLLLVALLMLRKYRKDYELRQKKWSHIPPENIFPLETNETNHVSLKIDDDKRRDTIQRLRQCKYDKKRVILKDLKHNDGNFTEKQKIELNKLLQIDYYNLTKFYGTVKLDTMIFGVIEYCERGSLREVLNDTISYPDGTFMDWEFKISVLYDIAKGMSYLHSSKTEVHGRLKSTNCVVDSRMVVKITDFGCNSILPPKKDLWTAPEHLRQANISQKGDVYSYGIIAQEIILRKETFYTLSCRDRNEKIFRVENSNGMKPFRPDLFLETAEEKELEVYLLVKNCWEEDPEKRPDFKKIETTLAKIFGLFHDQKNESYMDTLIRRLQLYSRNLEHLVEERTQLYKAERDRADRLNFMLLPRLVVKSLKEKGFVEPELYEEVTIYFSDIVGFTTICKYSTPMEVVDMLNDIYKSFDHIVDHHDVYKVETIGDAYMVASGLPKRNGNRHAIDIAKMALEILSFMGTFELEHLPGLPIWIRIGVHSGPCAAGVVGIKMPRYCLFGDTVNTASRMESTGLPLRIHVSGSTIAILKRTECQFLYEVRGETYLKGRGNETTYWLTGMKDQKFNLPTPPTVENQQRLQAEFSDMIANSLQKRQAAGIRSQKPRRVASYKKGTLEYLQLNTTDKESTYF

B1: SP4VHL-32H2 (bispecific antibody, human IgG1, kappa)
heavy: not shown
light: DVVMTQSPLSLPVTLGQPASISCRSSQSLVYNNGNTYLHWYQQRPGQSPRLLIYKVSNRFSGVPDRFSGSGSGTDFTLKISRVEAEDVGVYFCSQSTHVPLTFGQGTKVEIKRTVAAPSVFIFPPSDEQLKSGTASVVCLLNNFYPREAKVQWKVDNALQSGNSQESVTEQDSKDSTYSLSSTLTLSKADYEKHKVYACEVTHQGLSSPVTKSFNRGEC
notes: The anti-CD3 scFv (VH-L-VL of humanized SP34) sits at the N-terminus of the heavy chain; also called 结构2
On to B1, for which the “IC50 of T-cell-mediated killing of CW2 cells (CTG, E:T 5:1, 96 h)” value (from here on “IC50 … (CTG, E:T 5:1, 96 h)”) in [1] came out at 0.46 nM. In addition, the “IC50 of T-cell-mediated killing of T84 cells” value in experiment [2] is 0.004 nM. Besides, the “fold weaker affinity than SP34” value in experiment [3] was ~5 fold. In addition, the EC50 in experiment [4] came to 0.792 nM; in [5], 1.86 nM; in [6], 1 nM; in [7], 1.19 nM; in experiment [8], 2.83 nM; in experiment [9] it was 2.09 nM. Besides, the concentration giving a half-maximal response (EC50) is 1.84 nM in [10] and 0.59 nM in experiment [11].

B2: 32H2CH1-SP4VHL (bispecific antibody)
heavy: not shown
light: DVVMTQSPLSLPVTLGQPASISCRSSQSLVYNNGNTYLHWYQQRPGQSPRLLIYKVSNRFSGVPDRFSGSGSGTDFTLKISRVEAEDVGVYFCSQSTHVPLTFGQGTKVEIKRTVAAPSVFIFPPSDEQLKSGTASVVCLLNNFYPREAKVQWKVDNALQSGNSQESVTEQDSKDSTYSLSSTLTLSKADYEKHKVYACEVTHQGLSSPVTKSFNRGEC
notes: also called 结构7
Turning to B2, the “IC50 … (CTG, E:T 5:1, 96 h)” value in experiment [1] was 0.05 nM. For the same molecule, the “fold weaker affinity than SP34” value in experiment [3] was ~2 fold. The concentration for a half-maximal effect (EC50) came to 0.309 nM in experiment [4]; 0.29 nM in experiment [5]; 0.24 nM in [6]; 0.33 nM in experiment [7]; 0.521 nM in [8]; 0.23 nM in experiment [9]. In addition, the figures for the concentration for a half-maximal effect (EC50) in [10] and in experiment [11] were 0.188 nM and 0.37 nM, respectively.

B3: 32H2Fab-SP4VHL (bispecific antibody)
heavy: EVQLVESGGGLVKPGGSLRLSCAASGFSFRTYAMSWVRQAPGKSLEWVATISSGSSYIYYPDSVKGRFTVSRDNAKNSLYLQMNSLRAEDTAVYYCTCYRMETFEYWGQGTLVTVSSASTKGPSVFPLAPSSKSTSGGTAALGCLVKDYFPEPVTVSWNSGALTSGVHTFPAVLQSSGLYSLSSVVTVPSSSLGTQTYICNVNHKPSNTKVDKKVEPKSCGGGGSGGGGSGGGGSEVQLVESGGGLVQPGGSLRLSCAASGFTFNTYAMNWVRQAPGKGLEWVARIRSKYNNYATYYADSVKDRFTISRDDSKNTLYLQMNSLRAEDTAVYYCVRHGNFGNSYVSWFAYWGQGTLVTVSSGGGGSGGGGSGGGGSGGGGSQAVVTQEPSLTVSPGGTVTLTCRSSTGAVTTSNYANWVQQKPGQAPRGLIGGTNKRAPGVPARFSGSLLGGKAALTLSGAQPEDEAEYYCALWYSNLWVFGQGTKVEIK
light: DVVMTQSPLSLPVTLGQPASISCRSSQSLVYNNGNTYLHWYQQRPGQSPRLLIYKVSNRFSGVPDRFSGSGSGTDFTLKISRVEAEDVGVYFCSQSTHVPLTFGQGTKVEIKRTVAAPSVFIFPPSDEQLKSGTASVVCLLNNFYPREAKVQWKVDNALQSGNSQESVTEQDSKDSTYSLSSTLTLSKADYEKHKVYACEVTHQGLSSPVTKSFNRGEC
notes: also called 32H2Fab-SPVHL; 结构10
Take B3: the “IC50 … (CTG, E:T 5:1, 96 h)” value in experiment [1] was 51 nM. The “IC50 of T-cell-mediated killing of T84 cells” value in experiment [2] turned out to be 1.25 nM. Moreover, the EC50 stood at 35.5 nM in experiment [5]; 5.08 nM in [6]; 1.04 nM in experiment [7]; 30.1 nM in [9]; 6.12 nM in experiment [11].

B4: 10D7A7 (antibody, V domains shown)
VH: QVQLKQSGPGLVQPSQSLSITCTVSGFSLTNYGVHWVRQSPGKGLEWLGVIWSGGRKDYNAAFISRLNITKDNSKSQVFFTMNSLHSDDTAIYYCARHGTYPYWYFALWGAGTSVTISS
VL: DIQMTQTTSSLSASLGDRVTISCRASQDISNYLNWYQQKPDGTFKLLVYYTSRLQSGVPSRFSGSGSGTLYSLTISTLEQEDVATYFCQQGKTLPFSFGGGTRLEIK
As for B4, the values for the EC50 in experiment [12], in experiment [13] and in [14] were 0.0307 µg/mL, 0.137 µg/mL and 0.8 nM, respectively.

B5: 10D7-ch (antibody, V domains shown)
VH: QVQLKQSGPGLVQPSQSLSITCTVSGFSLTNYGVHWVRQSPGKGLEWLGVIWSGGRKDYNAAFISRLNITKDNSKSQVFFTMNSLHSDDTAIYYCARHGTYPYWYFALWGAGTSVTISS
VL: DIQMTQTTSSLSASLGDRVTISCRASQDISNYLNWYQQKPDGTFKLLVYYTSRLQSGVPSRFSGSGSGTLYSLTISTLEQEDVATYFCQQGKTLPFSFGGGTRLEIKR
As to B5, the response in experiment [15] was half-maximal at 0.113 nM (EC50).

B6: 43D11B1D2 (antibody, V domains shown)
VH: DVKLVESGGVLVKLGGSLKLSCAASGFTFSGYFMSWVRQTPEKRLELVAAINSDGGSTYYPDTVKGRFTISRDNAKNTLYLQMSSLKSEDTALYYCARLARYLYAMDYWGQGTSVTVSS
VL: QIVLTQSPAIMSASPGEKVTMTCSASSSVSYMYWYQQKPGSSPRLLIYDTSNLASGVPVRFSGSGSGTSYSLTISRMEAEDAATYYCQQWTSSSWTFGGGTKLEIK
With B6, the EC50 in experiment [12] came to 0.018 µg/mL; in experiment [13] it was 0.365 µg/mL; in experiment [16], 0.99 nM.

B7: 43D11-ch (antibody, V domains shown)
VH: DVKLVESGGVLVKLGGSLKLSCAASGFTFSGYFMSWVRQTPEKRLELVAAINSDGGSTYYPDTVKGRFTISRDNAKNTLYLQMSSLKSEDTALYYCARLARYLYAMDYWGQGTSVTVSS
VL: QIVLTQSPAIMSASPGEKVTMTCSASSSVSYMYWYQQKPGSSPRLLIYDTSNLASGVPVRFSGSGSGTSYSLTISRMEAEDAATYYCQQWTSSSWTFGGGTKLEIKR
In [15], B7 showed an EC50 of 5.19 nM.

B8: 32H2G1A1 (antibody, V domains shown)
VH: EVMLVESGGDLVKPGGSLKLSCAASGFSFRTYAMSWVRQSPEKSLEWVATISSGSSYIYYPDSVKGRFTVFRDNAKNTLYLQMSSLRSEDSAIYYCTCYRMETFEYWGQGTTLTVSS
VL: DVVMTQTPLSLPVSLGDEASISCRSSQSLVYNNGNTYLHWYLQKPGQSPKLLIYKVSNRFSGVPDRFSGSGSGTDFTLKISRVEAEDLGVYFCSQSTHVPLTFGAGTKLELK
On to B8, for which the EC50 in experiment [12] came out at 0.00709 µg/mL; in [13] it was 9.6 µg/mL; in [14], 0.26 nM.

B9: 32H2-ch (antibody, V domains shown)
VH: EVMLVESGGDLVKPGGSLKLSCAASGFSFRTYAMSWVRQSPEKSLEWVATISSGSSYIYYPDSVKGRFTVFRDNAKNTLYLQMSSLRSEDSAIYYCTCYRMETFEYWGQGTTLTVSS
VL: DVVMTQTPLSLPVSLGDEASISCRSSQSLVYNNGNTYLHWYLQKPGQSPKLLIYKVSNRFSGVPDRFSGSGSGTDFTLKISRVEAEDLGVYFCSQSTHVPLTFGAGTKLELKR
B9 displayed a half-maximal effective concentration (EC50) in experiment [15] of 0.141 nM. In other words, the sub-nanomolar range.
